Measured values as given in US20220340636A1.

Target: human IR-B overexpressed on NIH 3T3 mouse fibroblast cells (human) (UniProt P06213)
Assay: cell-based or functional assay

sCon-Ins G1 (ligand)
fold greater efficiency of Akt phosphorylation than the PTM-free analogue: 8 fold
log [EC50 (nM)], Akt phosphorylation (pAkt Ser473): 0.9 log nM

Con-Ins G1 (ligand)
fold less active than hIns, Akt phosphorylation assay: 10 fold
log [EC50 (nM)], Akt phosphorylation (pAkt Ser473): 0.78 log nM
